This note sets out measurements from publication PMC2806950.

The target of data set [1] is M.EcoKI, DNA methyltransferase component (M2S1) of the EcoKI type I R/M system (E. coli K12) (UniProt P08957). In words: fluorescence polarisation; competition with DNA: M.EcoKI titrated into 50 nM Ocr and 2 nM of a 21-bp DNA duplex fluorescently labelled at the 5' end; anisotropy of the DNA monitored. For orientation: Polarisation of emitted light reports the rotation of a fluorescent probe.

The target is the same in data set [2]. Briefly: ITC; Ocr (typically 40 uM) titrated into M.EcoKI (4 uM); 20 mM Tris-HCl pH 8.0, 6 mM MgCl2, 7 mM 2-mercaptoethanol, 100 uM SAM, with or without 500 mM NaCl; 10 to 30 °C. Background: In ITC the heat of successive injections is recorded.
In data set [3] the test system is M.EcoKI (M2S1 methyltransferase core of EcoKI). Briefly: fluorescence anisotropy. The arrangement: unit not given here. Particulars: Anisotropy: M.EcoKI titrated into 2 nM labelled duplex (with 50 nM Ocr in the competition series); buffer and temperature not given (ref. 12). ITC buffer ….
Data set [4] deals with T1, M.EcoKI methyltransferase (M2S1 core of the EcoKI type I restriction/modification enzyme) (UniProt P05719+P08957). In words: ITC. As to conditions: pH 8.0, 25 °C, no NaCl, 6 mM MgCl2.
Data set [5] deals with T1, M.EcoKI methyltransferase (M2S1 core of the EcoKI type I restriction/modification enzyme). In words: ITC in two buffers of different ionisation enthalpy (comparison of C1 and C2). As to conditions: pH 8.0; 25 °C; no NaCl; 6 mM MgCl2; 20 mM Tris-HCl pH 8.0 (47.4 kJ/mol) versus 20 mM Hepes (20.5 kJ/mol).

Regarding “Ocr chemically modified with EDC/HOBt and ammonium hydroxide for 120 min (N-series) (from UniProt P03775 1-117) (natural protein)”, in data set [1], the Kd is 3.77 nM. In data set [2], “Ocr chemically modified with EDC/HOBt and ammonium hydroxide for 60 min (N-series) (from UniProt P03775 1-117) (natural protein)” displayed a stoichiometry N (Ocr dimer per molecule of M.EcoKI) of 1. In data set [1], the Kd was 1.9 nM. 21-bp DNA duplex returned a Kd in data set [3] of 2.1. In data set [1], “Ocr chemically modified with EDC/HOBt and ammonium hydroxide for 30 min (N-series) (from UniProt P03775 1-117) (natural protein)” returned a Kd of 1.82 nM. In turn, “Ocr chemically modified with EDC/HOBt and dimethylamine for 180 min (D-series) (from UniProt P03775 1-117) (natural protein)” returned a Kd in data set [1] of 26.6 nM. Take “Ocr chemically modified with EDC/HOBt and dimethylamine for 60 min (D-series) (from UniProt P03775 1-117) (natural protein)”: in data set [1], the Kd was determined as 19.7 nM. In data set [2], “Ocr chemically modified with EDC/HOBt and dimethylamine for 15 min (D-series) (from UniProt P03775 1-117) (natural protein)” registered a stoichiometry N (Ocr dimer per molecule of M.EcoKI) of 1. In data set [1], this substance yielded a Kd of 2.64 nM. “Ocr chemically modified with EDC/HOBt and ammonium hydroxide for 15 min (N-series) (from UniProt P03775 1-117) (natural protein)” yielded a Kd in data set [1] of 0.56 nM.

In turn, “Ocr chemically modified with EDC/HOBt and dimethylamine for 30 min (D-series) (from UniProt P03775 1-117) (natural protein)” returned a Kd in data set [1] of 5.8 nM. For the substance “Ocr chemically modified with EDC/HOBt and dimethylamine for 120 min (D-series) (from UniProt P03775 1-117) (natural protein)”, in data set [1], the Kd was 23.1 nM. The same measure, in the same setting: for “Ocr chemically modified with EDC/HOBt and ammonium hydroxide for 180 min (N-series) (from UniProt P03775 1-117) (natural protein)” the value was 12.6 nM. For “Ocr (overcome classical restriction; gene 0.3 protein), unmodified wild type”, the ΔH result is “− 90.0 kJ/mol” in data set [4] (20 mM Hepes in place of Tris-HCl (heat of ionization = 20.5 kJ/mol as printed), pH not restated, taken as 8.0) and “− 86.2 kJ/mol” in data set [4] (20 mM Tris-HCl, pH 8.0 (heat of ionization = 47.4 kJ/mol as printed)). Moreover, the net protonation change on binding (no number given) in data set [5] is 0 protons.
